The target in this experiment is Est1-(myc)13 (Saccharomyces cerevisiae (from context; not stated for this protein)) (UniProt P17214). Kind of experiment: co-immunoprecipitation with anti-Rat1 peptide antibodies from extracts of yeast over-expressing Est1-(myc)13, probed for myc.
Chain of UniProt P17214 (P17214 whole entry): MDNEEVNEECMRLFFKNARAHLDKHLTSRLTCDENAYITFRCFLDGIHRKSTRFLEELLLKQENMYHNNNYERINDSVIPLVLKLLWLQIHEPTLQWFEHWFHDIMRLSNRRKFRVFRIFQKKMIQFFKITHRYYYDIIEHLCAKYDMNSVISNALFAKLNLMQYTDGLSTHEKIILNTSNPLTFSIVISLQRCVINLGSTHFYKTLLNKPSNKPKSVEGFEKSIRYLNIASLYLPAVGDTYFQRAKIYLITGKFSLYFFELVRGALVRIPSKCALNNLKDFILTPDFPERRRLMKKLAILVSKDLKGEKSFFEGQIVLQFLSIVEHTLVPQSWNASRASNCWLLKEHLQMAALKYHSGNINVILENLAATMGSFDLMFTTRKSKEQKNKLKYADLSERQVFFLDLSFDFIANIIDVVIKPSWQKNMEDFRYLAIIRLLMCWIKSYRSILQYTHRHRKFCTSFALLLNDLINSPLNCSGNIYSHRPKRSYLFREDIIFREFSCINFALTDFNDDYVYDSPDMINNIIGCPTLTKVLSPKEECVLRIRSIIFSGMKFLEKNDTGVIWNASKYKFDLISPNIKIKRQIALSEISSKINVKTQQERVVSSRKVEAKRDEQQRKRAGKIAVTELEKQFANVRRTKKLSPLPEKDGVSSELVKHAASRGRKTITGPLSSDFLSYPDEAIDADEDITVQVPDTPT

In turn, “S. cerevisiae Rat1 protein (from UniProt Q02792 2-1006) (enzyme)” had a co-immunoprecipitation efficiency of 5%.

Values taken from patent publication US20120134928A1.
